Reference: patent CN117242096A (APTEVO RES AND DEVELOPMENT LIMITED, dated 2023)
Each block holds one binder with its values, some of them ahead of it.

Columns and labels:
[1] = molecular target: T1, 人CD3ε (TCR/CD3复合物，Jurkat细胞) (human, UniProt P07766 23-207); assay: flow cytometry on Jurkat cells, domain within anti-TA x anti-CD3ε constructs
T1 construct: whole, on cells; The other chains of the TCR/CD3 complex are present on the cells; also called CD3(+) Jurkat

[2] = molecular target: T2, 人PSMA ECD-AFH (可溶性人PSMA ECD，重组二聚体PSMA ECD) (human, UniProt Q04609 44-750); assay: SPR Biacore, dimeric PSMA ECD
T2 construct: Expressed in HEK-293, IMAC then SEC; the dimer fraction was used; also called TSC033; HuPSMA-AFH
T2 sequence (Q04609 other isoform, or with tags, fused parts or gaps): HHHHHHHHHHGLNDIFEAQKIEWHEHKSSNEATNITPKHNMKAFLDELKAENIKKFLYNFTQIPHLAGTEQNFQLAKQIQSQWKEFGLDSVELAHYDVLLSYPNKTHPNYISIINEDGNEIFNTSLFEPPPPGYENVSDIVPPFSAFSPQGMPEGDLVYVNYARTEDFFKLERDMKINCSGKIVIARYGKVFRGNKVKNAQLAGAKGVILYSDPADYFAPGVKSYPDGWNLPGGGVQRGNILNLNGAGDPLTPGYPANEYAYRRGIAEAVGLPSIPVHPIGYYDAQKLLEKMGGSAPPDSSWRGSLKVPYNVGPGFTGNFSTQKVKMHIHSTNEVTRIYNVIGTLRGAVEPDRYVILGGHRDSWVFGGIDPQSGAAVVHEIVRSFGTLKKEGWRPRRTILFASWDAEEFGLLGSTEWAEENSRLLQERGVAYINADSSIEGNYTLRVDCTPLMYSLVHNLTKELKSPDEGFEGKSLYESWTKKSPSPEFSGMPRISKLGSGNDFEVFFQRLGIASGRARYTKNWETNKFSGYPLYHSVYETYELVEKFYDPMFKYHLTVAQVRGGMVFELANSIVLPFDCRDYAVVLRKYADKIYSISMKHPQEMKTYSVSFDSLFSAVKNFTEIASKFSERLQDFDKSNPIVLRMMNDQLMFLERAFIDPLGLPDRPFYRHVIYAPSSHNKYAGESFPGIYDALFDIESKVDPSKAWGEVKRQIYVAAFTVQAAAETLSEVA

全长食蟹猴PSMA = molecular target: T3, 全长食蟹猴PSMA (cynomolgus monkey, UniProt Q04609 1-750 (human entry)); assay: MSD live-cell ELISA on CHOK1SV/cynoPSMA cells
T3 construct: On transfected CHO cells; also called TSC308; cynoPSMA
T3 chain: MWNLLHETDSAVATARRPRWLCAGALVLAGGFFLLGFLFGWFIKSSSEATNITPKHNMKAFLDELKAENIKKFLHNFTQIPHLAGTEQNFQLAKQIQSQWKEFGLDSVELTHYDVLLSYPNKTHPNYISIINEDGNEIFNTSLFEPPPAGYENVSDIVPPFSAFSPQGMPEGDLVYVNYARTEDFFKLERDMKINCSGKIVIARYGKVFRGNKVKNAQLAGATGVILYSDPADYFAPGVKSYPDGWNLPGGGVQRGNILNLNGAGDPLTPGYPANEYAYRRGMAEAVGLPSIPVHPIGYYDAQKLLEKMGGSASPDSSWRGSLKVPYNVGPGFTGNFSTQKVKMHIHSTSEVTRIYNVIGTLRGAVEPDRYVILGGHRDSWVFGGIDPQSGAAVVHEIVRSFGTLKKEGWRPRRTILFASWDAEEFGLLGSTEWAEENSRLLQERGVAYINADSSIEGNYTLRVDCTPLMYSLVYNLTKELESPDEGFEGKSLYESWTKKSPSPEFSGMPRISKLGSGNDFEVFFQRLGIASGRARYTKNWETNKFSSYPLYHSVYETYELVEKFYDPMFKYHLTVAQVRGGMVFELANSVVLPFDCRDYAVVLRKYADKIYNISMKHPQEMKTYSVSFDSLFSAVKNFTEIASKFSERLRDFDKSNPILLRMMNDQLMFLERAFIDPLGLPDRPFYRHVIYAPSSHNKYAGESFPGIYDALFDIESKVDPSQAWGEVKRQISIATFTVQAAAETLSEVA

[3] = molecular target: T2, 人PSMA ECD-AFH (可溶性人PSMA ECD，重组二聚体PSMA …); assay: SPR Biacore T200, scFv-Fc captured by anti-human IgG, dimeric PSMA ECD as analyte

T1 sequence (P07766 23-207): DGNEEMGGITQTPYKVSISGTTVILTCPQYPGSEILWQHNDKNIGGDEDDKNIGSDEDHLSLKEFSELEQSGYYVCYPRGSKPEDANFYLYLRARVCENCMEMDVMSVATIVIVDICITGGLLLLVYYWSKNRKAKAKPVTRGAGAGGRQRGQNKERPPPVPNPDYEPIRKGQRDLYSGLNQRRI

binding result [1]: binds
B1: CRIS7H16 (scFv, V domains shown)
VH: QVQLVQSGAEVKKPGASVKVSCKASGYTFTRSTMHWVRQAPGQGLEWIGYINPSSAYTNYAQKFQGRVTLTADKSTSTAYMELSSLRSEDTAVYYCASPQVHYDYNGFPYWGQGTLVTVSS
VL: DIQMTQSPSSLSASVGDRVTITCRASSSVSYMNWYQQKPGKAPKRWIYDSSKLASGVPSRFSGSGSGTDFTLTISSLQPEDFATYYCQQWSRNPPTFGQGTKVEIK
notes: also called H16 CD3结合结构域

Kd [2]: 40 nM | binding result (全长食蟹猴PSMA): binds
B2: PSMA01023 (Fc fusion)
chain: DIQMTQSPSTLSASVGDRVTITCRASKSISKYLAWYQQKPGKAPKLLIHSGSSLESGVPSRFSGSGSGTEFTLTISSLQPDDFATYYCQQHIEYPWTFGQGTKVEIKGGGGSGGGGSGGGGSGGGGSQVQLVQSGAEVKKPGASVKVSCKASGYTFTDYYMHWVRQAPGQGLEWMGYFNPYNDYTRYAQKFQGRVTMTRDTSTSTVYMELSSLRSEDTAVYYCARSDGYYDAMDYWGQGTTVTVSSSEPKSSDKTHTCPPCPAPEAAGAPSVFLFPPKPKDTLMISRTPEVTCVVVDVSHEDPEVKFNWYVDGVEVHNAKTKPREEQYNSTYRVVSVLTVLHQDWLNGKEYKCAVSNKALPAPIEKTISKAKGQPREPQVYTLPPSRDELTKNQVSLTCLVKGFYPSDIAVEWESNGQPENNYKTTPPVLDSDGSFFLYSKLTVDKSRWQQGNVFSCSVMHEALHNHYTQKSLSLSPGK
notes: Monospecific bivalent anti-PSMA scFv-Fc, scFv in VL-VH orientation

binding result [3]: binds
B3: PSMA01012 (Fc fusion)
VH: QVQLVQSGAEVKKPGASVKVSCKASGYTFTDYYMHWVRQAPGQGLEWMGYFNPYNDYTRYAQKFQGRVTMTRDTSISTAYMELSSLRSDDTAVYYCARSDGYYDAMDYWGQGTTVTVSS
VL: DIQMTQSPSAMSASVGDRVTITCRASKSISKYLAWFQQKPGKVPKLRIHSGSTLQSGVPSRFSGSGSGTEFTLTISSLQPEDFATYYCQQHIEYPWTFGQGTKVEIKR
notes: Monospecific bivalent scFv-Fc, scFv in VL-VH orientation; also called TSC189 (结合结构域); 亲本构建体PSMA01012
